The results in this text go back to patent US20200018762.

In data set [1] the target is FLAG-tagged Y37F mutant-H2B (UniProt P62807).
The target in a further data set is FLAG-tagged H2B (UniProt P62807).
In data set [2] the test system is biotinylated H4-derived unphosphorylated peptide TVTAMDVVYALKRQGRT
In data set [3] the test system is biotinylated human histone H2B derived peptide KRSRKESYSVYVYKVL
Data set [4] has as its system purified human H2A recombinant protein (NEB).
The target in data set [5] is purified human H4 recombinant protein (NEB) (UniProt P62805).
The subject of data set [6] is H2B peptide with a Tyr37-to-Phe mutation (SRKESFSVYVYK).
Data set [7] has as its target purified human H3 recombinant protein (NEB) (UniProt P68431).
The target in data set [8] is purified human H2B recombinant protein (NEB) (UniProt P62807).
Data set [9] deals with H2B peptide spanning Tyr37 (Tyr37-H2B; SRKESYSVYVYK).

Sequence of recombinant GST-WEE1 protein (Invitrogen) (chain, as listed by the source): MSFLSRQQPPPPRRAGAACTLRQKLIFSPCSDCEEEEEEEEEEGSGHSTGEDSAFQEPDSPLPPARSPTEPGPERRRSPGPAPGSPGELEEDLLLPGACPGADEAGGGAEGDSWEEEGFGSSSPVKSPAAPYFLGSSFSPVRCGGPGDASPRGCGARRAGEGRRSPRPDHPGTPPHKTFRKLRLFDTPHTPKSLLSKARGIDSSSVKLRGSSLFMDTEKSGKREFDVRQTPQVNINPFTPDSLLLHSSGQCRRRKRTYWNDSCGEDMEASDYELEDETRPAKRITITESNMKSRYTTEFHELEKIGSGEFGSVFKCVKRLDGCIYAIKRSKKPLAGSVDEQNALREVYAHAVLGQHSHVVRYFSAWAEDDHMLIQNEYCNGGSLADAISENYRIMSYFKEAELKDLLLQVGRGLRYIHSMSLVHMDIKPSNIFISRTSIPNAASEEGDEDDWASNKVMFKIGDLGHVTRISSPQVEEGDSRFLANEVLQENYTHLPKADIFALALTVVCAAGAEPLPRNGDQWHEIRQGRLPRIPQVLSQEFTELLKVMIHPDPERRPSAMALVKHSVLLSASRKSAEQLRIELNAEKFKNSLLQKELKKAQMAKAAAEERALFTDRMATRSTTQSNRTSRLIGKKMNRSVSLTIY
Sequence of Myc-tagged WEE1 (WT) (chain, as listed by the source): as above
Sequence of purified WEE1 protein (Examples 5 and 7) (chain, as listed by the source): as above

Consider Myc-tagged WEE1 (WT), for which the results for the “coexpression in MEFs, immunoprecipitation with pTyr37-H2B antibodies, FLAG immunoblot” value (in data set [1]; with FLAG-tagged H2B) were “failed to phosphorylate Y37F mutant (FIG. 13G)” and “the WT-WEE1 specifically phosphorylated H2B”, respectively.

With “purified WEE1 protein (Examples 5 and 7)”, the “in vitro kinase assay on immobilized peptide, ELISA with pY88-H4 antibodies” value in data set [2] was “Incubation of H4 peptide with WEE1 and Ack1 protein resulted in robust H4 Tyr88-phosphorylation”. Further, the “Peptide Immunosandwich Assay (kinase reaction on immobilized peptide, detection with pY37-H2B antibodies, OD 450 nm)” value in [3] was “Purified WEE1 exhibited robust H2B Tyr37-phosphorylation and a significant decrease in pY37-H2B levels was observed upon incubation with 5 uM of MK-1775 (FIG. 34)”.

For “recombinant GST-WEE1 protein (Invitrogen)”, the “in vitro kinase assay, immunoblot with pTyr37-H2B antibody” value in data set [4] was “WEE1 specifically phosphorylated H2B and failed to phosphorylate other three core histones, H2A, H3 and H4 (FIG. 13E)”; in data set [5], “WEE1 specifically phosphorylated H2B and failed to phosphorylate other three core histones, H2A, H3 and H4 (FIG. 13E)”; in data set [7] it was “WEE1 specifically phosphorylated H2B and failed to phosphorylate other three core histones, H2A, H3 and H4 (FIG. 13E)”; in [8], “When purified WEE1 and H2B were incubated, H2B was Tyr37-phosphorylated, however, WEE1 inhibitor abrogated H2B pTyr37-phosphorylation (FIG. 13D)”. The “in vitro kinase reaction with peptide, dot blot with pTyr37-H2B antibody” value in [6] is “Y37F mutant peptide was not phosphorylated”; in [9], “WEE1 phosphorylated H2B peptide”.
